One molecule from patent publication US20090297439A1 (METHERESIS TRANSLATIONAL RESEARCH, published 2009) can be followed below.

The test has as its target T1, Met (UniProt P08581 25-932, limits assumed).
T1 construct: Met as the partner of the printed Kd; The assay and the construct are not described; also called HGFR; hepatocyte growth factor receptor
Briefly: not stated (given as a property of the antibody in Material and Methods).

T1 sequence (P08581 25-932 limits assumed): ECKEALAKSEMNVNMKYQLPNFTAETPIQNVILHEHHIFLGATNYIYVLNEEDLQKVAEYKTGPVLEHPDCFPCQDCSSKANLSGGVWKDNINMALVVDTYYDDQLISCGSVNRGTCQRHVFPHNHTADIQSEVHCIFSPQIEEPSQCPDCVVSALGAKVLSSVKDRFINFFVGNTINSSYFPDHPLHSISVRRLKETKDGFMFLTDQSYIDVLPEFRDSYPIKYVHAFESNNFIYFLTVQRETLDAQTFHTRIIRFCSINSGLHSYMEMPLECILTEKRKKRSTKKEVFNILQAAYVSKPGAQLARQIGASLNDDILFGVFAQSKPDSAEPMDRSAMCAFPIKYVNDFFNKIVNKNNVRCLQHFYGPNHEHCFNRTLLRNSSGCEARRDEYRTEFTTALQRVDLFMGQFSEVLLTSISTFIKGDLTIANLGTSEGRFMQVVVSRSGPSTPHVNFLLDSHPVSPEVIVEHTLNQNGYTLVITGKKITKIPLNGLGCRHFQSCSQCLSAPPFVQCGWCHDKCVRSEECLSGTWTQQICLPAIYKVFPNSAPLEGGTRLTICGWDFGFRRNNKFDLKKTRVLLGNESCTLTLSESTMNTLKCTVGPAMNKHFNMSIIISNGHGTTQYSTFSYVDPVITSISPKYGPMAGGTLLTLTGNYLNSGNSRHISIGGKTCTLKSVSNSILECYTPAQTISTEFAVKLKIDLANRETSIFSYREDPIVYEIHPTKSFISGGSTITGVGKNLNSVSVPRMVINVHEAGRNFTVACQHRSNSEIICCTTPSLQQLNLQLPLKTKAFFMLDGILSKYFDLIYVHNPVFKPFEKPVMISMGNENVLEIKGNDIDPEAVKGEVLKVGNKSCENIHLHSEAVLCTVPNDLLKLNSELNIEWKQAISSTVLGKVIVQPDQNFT

B1: murine IgG2a MAb DN30 (antibody, V domains shown)
VH: QVQLQQPGTELVKPGASVKLSCKASGYTFTSYWIHWVKQRPGQGLEWIGEINPSSGRTNYNEKFKNKVTVTVDKSSTTAYMQLSNLTSEDSAVYYCASRGYWGQGTTLTVSS
VL: DIVLTQSPASLAVSLGQRATISCKASQSVDYDGGSYMSWFQQRPGQPPKLLISAASNLESGIPARFSGSGSGTDFTLNIHPVEEEDVATYYCQQSYEDPLTFGAGTKLELKR
notes: Murine IgG2a, intact MAb; also called anti-Met monoclonal antibody produced by the hybridoma cell line ICLC PD 05006
B1 came in with a Kd of 2.64 nM.
